# Measurements taken from patent US10456446B2, “Use of human small leucine zipper protein in osteogenesis procedure” (Korea University Research and Business Foundation, priority 2013, dated 2019).
# T1: PPARγ2 (Homo sapiens, UniProt P37231)
# T1 construct: expressed in transfected cells; host or cells: 293T
# T1 sequence (P37231 1-505): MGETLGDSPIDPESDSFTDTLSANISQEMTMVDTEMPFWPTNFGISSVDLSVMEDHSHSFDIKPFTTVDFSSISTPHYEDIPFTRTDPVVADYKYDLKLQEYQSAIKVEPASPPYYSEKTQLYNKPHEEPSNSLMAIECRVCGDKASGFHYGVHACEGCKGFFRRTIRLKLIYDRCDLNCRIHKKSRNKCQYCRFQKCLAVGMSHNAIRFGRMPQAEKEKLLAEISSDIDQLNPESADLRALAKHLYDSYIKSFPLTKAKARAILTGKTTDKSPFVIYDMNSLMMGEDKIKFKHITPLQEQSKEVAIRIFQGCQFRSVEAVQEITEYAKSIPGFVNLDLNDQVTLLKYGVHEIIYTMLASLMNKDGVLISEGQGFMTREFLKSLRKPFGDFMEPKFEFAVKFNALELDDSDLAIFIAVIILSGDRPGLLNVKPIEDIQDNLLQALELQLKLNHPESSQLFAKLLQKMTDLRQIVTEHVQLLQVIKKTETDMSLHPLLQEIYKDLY
# Target: T1, PPARγ2
# Assay: PPARγ2 transcriptional activity, FABP4-Luc luciferase reporter in transfected 293T cells
# Assay type: cell-based
# Conditions: for PPARγ2 transcriptional activity (relative luciferase activity): sLZIP or deletion mutants 0.1 μg, RZD treated
# Protocol: C3H10T1/2 and 293T cells were plated in a 12-well culture dish at a density of 2×10^5 cells/well and incubated for 24 hours. Then, according to instructions of the manufacturer, the cells were transfected with a 0.2 μg of reporter genes and 0.1 to 0.5 μg of a laboratory plasmid using Lipofectamine 2000 or Genefectine. After 24 hours, the cells were cultured in a serum-free DMEM with or without 10 nM of rosiglitazone. siRNAs were prepared using sLZIP and HDAC target sequences (Table 1). For an RNA interference experiment, according to instructions of the manufacturer, the cells were transfected with scrambled control group RNA and appropriate siRNAs using Lipofectamine 2000. Human MSC and C3H10T/1/2 cells were infected with an adenovirus vector containing cDNA of human sLZIP or an empty vector. The infected medium was exchanged with a fresh medium after two hours.
# Appropriately transfected cells were washed with cold PBS twice, and a reporter lysis buffer (Promega) was used and lysed in a culture dish. Luciferase analysis was performed using a luciferase analysis system (Promega Corporation, Madison, Wis.). A luciferase activity was recorded in Luminometer 20/20^n (Turner BioSystems, Sunnyvale, Calif.) according to instructions of the manufacturer. The luciferase activity was normalized to a β-galactosidase activity. For β-galactosidase analysis, CMV-β-galactosidase was transfected with luciferase reporter genes. All pieces of data were represented as mean±standard deviation of the results from at least three independent experiments.
# In order to examine an effect of sLZIP on the transcriptional activity of PPARγ2, 293T cells were temporarily transfected with PPARγ2 (0.5 μg), β-galactosidase (0.1 μg), FABP4-Luc reporter genes (0.2 μg) and sLZIP at different contents (0.1 to 0.5 μg). After the transfection, the cells were stimulated with or without 10 nM of rosiglitazone (RZD) (FIG. 1A), pioglitazone (PZD) (FIG. 1B), and troglitazone (TZD) (FIG. 1C). A relative luciferase activity was analyzed with or without cell ligand treatment 24 hours after transfection. Also, the 293T cells were transiently transfected with si-sLZIP at different contents (50 and 100 nM), and the cells were treated or not treated with RZD (FIG. 1D). FABP4-Luc stable C3H10T1/2 cells were infected with a sLZIP-expressing adenovirus, and then differentiated into adipocytes for 4 days (FIG. 1E). A luciferase activity was normalized to a β-galactosidase activity and represented as a relative activity (fold change). All experiments were repeated three times, and bars in the graph represent mean±standard deviation. *, P<0.05; **, P<0.01
# For this purpose, 293T cells were transiently transfected with PPARγ2 (0.5 μg), β-galactosidase (0.1 μg), FABP4-Luc reporter genes (0.2 μg) and sLZIP (0.1 μg). After the transfection, the cells were stimulated with or without 10 nM of RZD and 10 nM of TSA (FIG. 4A). A promoter activity was measured according to luciferase analysis. In the 293T cells, FABP4-Luc reporter genes, sLZIP, PPAR, β-galactosidase, and 100 nM of si-RNAs and HDAC1, 2, 3 and 8 for a control group were expressed. After the transfection, the cells were stimulated with or without 10 nM of RZD, and a promoter activity was measured (FIG. 4B). 293T cells were temporarily transfected with FABP4-Luc reporter genes, PPARγ2, β-galactosidase, HDAC3 (0.5 μg) and sLZIP (0.1 μg). After the transfection, the cells were stimulated with or without 10 nM of RZD, and luciferase analysis was performed (FIG. 4C). A luciferase activity was normalized to a β-galactosidase activity and represented as a relative intensity (fold change). All experiments were repeated three times, and bars in the graph represent mean±standard deviation. GFP-sLZIP expression constructs were expressed in C3H10T1/2 cells, rabbit anti-HDAC3 antibodies and Texas Red-labeled anti-rabbit antibodies were used and analysis was performed under a fluorescence microscope. The nucleus was stained with DAPI (FIG. 4D). […]
molecule,measurement,setting,value
"sLZIP: human small leucine-zipper protein, isoform of LZIP, 354 amino acids, no transmembrane domain, GenBank FJ263669, SEQ ID NO: 1 (protein, listed as Homo sapiens) MELELDAGDQDLLAFLLEESGDLGTAPDEAVRAPLDWALPLSEVPSDWEVDDLLCSLLSPPASLNILSSSNPCLVHHDHTYSLPRETVSMDLESESCRKEGTQMTPQHMEELAEQEIARLVLTDEEKSLLEKEGLILPETLPLTKTEEQILKRVRRKIRNKRSAQESRRKKKVYVGGLESRVLKYTAQNMELQNKVQLLEEQNLSLLDQLRKLQAMVIEISNKTSSSSMYSSDTRGSLPAEHGVLSRQLRALPSEDPYQLELPALQSEVPKDSTHQWLDGSDCVLQAPGNTSCLLHYMPQAPSAEPPLEWPFPDLFSEPLCRGPILPLQANLTRKGGWLPTGSPSVILQDRYSG",sLZIP-mediated PPARγ2 transcriptional activity,"sLZIP 0.1 μg together with HDAC3 0.5 μg, with or without 10 nM RZD",significantly down-regulated
same,transcriptional activity of PPARγ2 (relative luciferase activity),"sLZIP 0.1 μg, cells treated with 10 nM TSA",did not decrease the transcriptional activity of PPARγ2
same,transcriptional activity of PPARγ2 (relative luciferase activity),"sLZIP 0.1 μg, no TSA",inhibits the transcriptional activity of PPARγ2
same,transcriptional activity of PPARγ2 (relative luciferase activity),"sLZIP 0.1 to 0.5 μg, with or without 10 nM RZD, PZD or TZD, 24 hours",inhibits the transcriptional activity of PPARγ2 in a concentration-dependent manner
same,PPARγ2 transcriptional activity (relative luciferase activity),,still inhibited the PPARγ2 transcriptional activity
"N domains of sLZIP: N-terminal deletion mutant of sLZIP (1-228) (protein, left off: a dimerising Fc or GST) MELELDAGDQDLLAFLLEESGDLGTAPDEAVRAPLDWALPLSEVPSDWEVDDLLCSLLSPPASLNILSSSNPCLVHHDHTYSLPRETVSMDLESESCRKEGTQMTPQHMEELAEQEIARLVLTDEEKSLLEKEGLILPETLPLTKTEEQILKRVRRKIRNKRSAQESRRKKKVYVGGLESRVLKYTAQNMELQNKVQLLEEQNLSLLDQLRKLQAMVIEISNKTSSSS",PPARγ2 transcriptional activity (relative luciferase activity),,inhibited
